Measurements: publication PMC3308694 (The Journal of Cell Biology, 2012)

Molecular target: the molecule itself
Assay: SEC

B1: CC^95–303 with the E191A + K192A mutation (domain or fragment, S. cerevisiae, UniProt Q00402 95-303, looked up)
chain: KDMNFTLELSENLLVECRKLQSSNEAKNEQIKSLKQIKESLSDKIEELTNQKKSFMKELDSTKDLNWDLESKLTNLSMECRQLKELKKKTEKSWNDAAESLKLLKTDLEILTLTKNGMENDLSSQKLHYDKEISELKERILDLNNENDRLLISVSDLTSEINSLQSNRTERIKIQKQLDDAKASISSLKRKVQKKYYQKQHTSDTTVTS
- binding result: binds
